Measured values reported in doi:10.1101/2022.06.17.496531 (bioRxiv, 2022).

How the values were obtained:
Assay in all cases: native MS
[1] = molecular target: long neurotoxin 4 from N. naja (Naja naja, UniProt P25672)
[2] = molecular target: long neurotoxin 2 from N. melanoleuca (Naja melanoleuca, UniProt P01388)
[3] = molecular target: long neurotoxin from N. melanoleuca (Naja melanoleuca, UniProt P0DQQ2)
[4] = molecular target: long neurotoxin 2 from O. hannah (Ophiophagus hannah, UniProt A8N285)

Measured: binding result

B1: 2554_01_D11 IgG (antibody, V domains shown)
VH: QVQLVQSGAEVKKPGSSVKVSCKASGGTFSSYAISWVRQAPGQGLEWMGGIIPIFGTANYAQKFQGRVTITADESTSTAYMELRSLRSDDTAVYYCARDNLGYCSGGSCYSDYYYYYMDVWGQGTLVTVSS
VL: NFMLTQPRSVSESPGKTVTISCTRSSGSIGSDYVHWYQQRPGSSPTTVIYEDNQRPSGVPDRFSGSIDSSSNSASLTISGLKTEDEADYYCQSYDRSNHEVVFGGGTKLTVL
binds: [1] | [2] | [3] | [4]
